{
  "source": "patent US20210063414A1",
  "about": "“METHODS FOR PREVENTING AND/OR TREATING BONE LOSS CONDITIONS BY MODULATING IRISIN” (Dana-Farber Cancer Institute, Inc., priority 2018, published 2021)",
  "molecules": {"B1": {"name": "irisin: secreted cleaved form of FNDC5; recombinant human/mouse irisin with C-terminal his tag produced in HEK293 cells (protein)", "chain": "DSPSAPVNVTVRHLKANSAVVSWDVLEDEVVIGFAISQQKKDVRMLRFIQEVNTTTRSCALWDLEEDTEYIVHVQAISIQGQSPASEPVLFKTPREAEKMASKNKDEVTMKE", "modifications": "left off: small tags and cut ends", "notes": "secreted cleaved form of FNDC5; recombinant human/mouse irisin with C-terminal his tag produced in HEK293 cells"}},
  "target": "T1, MLO-Y4 cell surface proteins (Mus musculus, UniProt P59242)",
  "T1 construct": "endogenous in cells; host or cells: MLO-Y4",
  "T1 sequence (P59242 1-1191)": "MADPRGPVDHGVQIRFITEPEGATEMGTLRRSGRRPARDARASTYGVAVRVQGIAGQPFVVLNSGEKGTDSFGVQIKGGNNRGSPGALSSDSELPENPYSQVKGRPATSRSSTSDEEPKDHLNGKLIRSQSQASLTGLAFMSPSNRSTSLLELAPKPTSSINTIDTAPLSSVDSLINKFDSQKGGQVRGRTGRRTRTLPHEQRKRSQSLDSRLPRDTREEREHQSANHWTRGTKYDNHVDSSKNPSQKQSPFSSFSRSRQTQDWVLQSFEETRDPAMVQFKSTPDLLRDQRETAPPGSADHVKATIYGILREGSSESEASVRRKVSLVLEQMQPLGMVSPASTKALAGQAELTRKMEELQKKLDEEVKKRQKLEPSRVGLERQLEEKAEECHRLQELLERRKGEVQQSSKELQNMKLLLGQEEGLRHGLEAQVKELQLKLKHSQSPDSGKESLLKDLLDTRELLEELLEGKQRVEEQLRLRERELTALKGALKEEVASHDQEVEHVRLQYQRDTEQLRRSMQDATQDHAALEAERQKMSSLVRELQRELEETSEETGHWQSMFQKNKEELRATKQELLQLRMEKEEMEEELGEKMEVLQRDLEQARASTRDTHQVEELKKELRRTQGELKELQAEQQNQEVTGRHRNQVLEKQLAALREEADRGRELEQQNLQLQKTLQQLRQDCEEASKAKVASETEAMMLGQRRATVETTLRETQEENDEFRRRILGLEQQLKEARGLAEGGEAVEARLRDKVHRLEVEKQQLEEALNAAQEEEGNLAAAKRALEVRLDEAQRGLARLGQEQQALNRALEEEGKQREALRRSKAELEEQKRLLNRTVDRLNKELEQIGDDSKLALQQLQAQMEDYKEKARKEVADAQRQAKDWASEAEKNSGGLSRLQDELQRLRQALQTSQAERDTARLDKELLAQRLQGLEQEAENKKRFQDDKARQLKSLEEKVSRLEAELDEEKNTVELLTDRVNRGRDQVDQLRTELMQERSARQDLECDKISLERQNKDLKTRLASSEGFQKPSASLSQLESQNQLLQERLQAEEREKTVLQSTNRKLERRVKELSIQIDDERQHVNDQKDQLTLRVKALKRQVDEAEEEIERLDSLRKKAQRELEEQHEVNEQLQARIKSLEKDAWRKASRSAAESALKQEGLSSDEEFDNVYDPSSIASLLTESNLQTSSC",
  "test": "Crosslinking/co-immunoprecipitation/mass spectrometry (TMT quantitative proteomics) to identify irisin receptors",
  "format": "binding",
  "conditions": "co-precipitated protein Cgn (CING_MOUSE)",
  "summary_of_the_method": "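Mouse MLO-Y4 cells were switched to serum-free FreeStyle medium for 4 h, chilled, then exposed to 10 nM His-tagged irisin (or adipsin as control) for 20 min. Cells were crosslinked with 1.5 mM DTSSP (30 min, ice), and bound proteins were pulled down on Ni-NTA and eluted with 250 mM imidazole. Eluates were separated by SDS-PAGE, trypsin-digested in gel, TMT 6-plex labelled and quantified by MS3-based LC-MS/MS on an Orbitrap Fusion Lumos.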",
  "data": [
    {"molecule": "B1", "values": [
      {"measurement": "TMT signal-to-noise ratio", "result": 16.0255},
      {"measurement": "irisin/adipsin TMT signal-to-noise ratio", "result": 0.080}
    ]}
  ]
}
